Reference: the supplement of paper PMC9732359
± gives the uncertainty stated by the source.

Assay: protein stability index of a GFP-peptide fusion (yeast GPS) (PSI 1-4); higher = more stable; sorted into four equal gates, so the index is relative within each strain
Summary of the method: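 The protein stability index combines read frequencies across sorting gates, each weighted by its gate number and then summed. To obtain those frequencies, a pooled yeast library of GFP fusions to tiled 17-residue yeast protein peptides, on a plasmid also expressing Cherry, was grown to mid-log phase in leucine-free medium. The cells were sorted into four equal gates by GFP/Cherry ratio before plasmid amplification by PCR and Illumina sequencing.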

Row | Sequence | protein stability index (doa10∆) | protein stability index (pdr5∆) | protein stability index (san1∆) | protein stability index (ubr1∆)
1 | TTTKIIDSTDHIRKASS [LRP1] | 2.19 ± 0.048 | 2.07 ± 0.039 | 1.64 ± 0.066 | 2.32 ± 0.038
2 | AICRNHIMEPCIECQPK [HRT1] | 2.26 ± 0.081 | 3.23 ± 0.13 | 2.17 ± 0.094 | 2.67 ± 0.074
3 | SASLKKIQQHNTILNSS [BRR2] | 2.65 ± 0.052 | 2.93 ± 0.055 | 2.79 ± 0.032 | 2.81 ± 0.041
4 | KQINEARDEILPLRLQF [PGD1] | 2.13 ± 0.065 | 2.63 ± 0.077 | 2.4 ± 0.074 | 2.77 ± 0.052
5 | EYKVITSLQGTYEAIEI [YMR129W/POM152] | 3.34 ± 0.2 | 2.99 ± 0.2 | 2.89 ± 0.14 | 3.17 ± 0.13
6 | EETNVDIGVLEEYARRL [SMC4] | – | 3.36 ± 0.24 | 3.64 ± 0.072 | 3.48 ± 0.1
7 | LTFMTCNSLHIPQDFEN [ESC2] | 2.17 ± 0.045 | 2.46 ± 0.047 | 2.19 ± 0.089 | 2.66 ± 0.04
8 | QLELRQLNASISLIPEL [RRI2] | 2.55 ± 0.062 | 2.58 ± 0.069 | 2.42 ± 0.063 | 2.85 ± 0.043
9 | FGNIMDNLLEMSDHSLD [RRP6] | 2.42 ± 0.074 | 2.58 ± 0.065 | 1.89 ± 0.1 | 3.27 ± 0.05
10 | DSLISGVKQKITIQLTR [BRR2] | 1.44 ± 0.12 | 1.74 ± 0.064 | 2.66 ± 0.083 | 1.63 ± 0.073
11 | DTISAITHQLNNKFANK [RPC25] | – | 2.42 ± 0.16 | – | –
12 | KKYLKKNQLRDWIRFVS [RPL22A] | 1.8 ± 0.06 | 1.68 ± 0.062 | 1.2 ± 0.14 | 1.12 ± 0.09
13 | MPRAPRTYSKTYSTPKR [RPS9A] | 2.3 ± 0.064 | 2.45 ± 0.069 | 2.68 ± 0.053 | 2.62 ± 0.054
14 | LPAPPVCIRPSVMMQDS [RPO31] | 1.61 ± 0.081 | 2.08 ± 0.1 | 1.93 ± 0.11 | 2.04 ± 0.095
15 | DLVKPKNPKFSNAFYSV [SMC4] | 2.43 ± 0.062 | 2.42 ± 0.064 | 2.26 ± 0.074 | 2.82 ± 0.067
16 | VNDVEELGEIIDEDIGN [RMP1] | 3.41 ± 0.15 | – | 2.98 ± 0.2 | 3.19 ± 0.28
17 | DVTPISMFGSDQKTGRA [RPN4] | 2.93 ± 0.069 | 3.11 ± 0.094 | 3.07 ± 0.066 | 2.95 ± 0.069
18 | LNSNIRAGVTIPSIPNP [SNF5] | 2.57 ± 0.075 | 2.72 ± 0.062 | 2.5 ± 0.062 | 2.72 ± 0.049
19 | LISGAGANPRVLSTFTA [RPN10] | 2.16 ± 0.11 | 2.04 ± 0.1 | 2.02 ± 0.2 | 2.17 ± 0.072
20 | MPPKQQLSKAAKAAAAL [RPS25A] | 1.73 ± 0.048 | 1.87 ± 0.05 | 1.76 ± 0.062 | 1.83 ± 0.042
21 | FSNRFLPVASPFHSHLL [FAS1] | 2.5 ± 0.13 | 2.98 ± 0.11 | 3.19 ± 0.27 | 2.76 ± 0.098
22 | ANLLPARQFGYVILTTS [RPS22A] | 1.29 ± 0.053 | 1.35 ± 0.044 | 1.2 ± 0.094 | 1.11 ± 0.046
23 | NGWEKYLHNVELGEKKN [ISW2] | 1.7 ± 0.087 | 1.8 ± 0.14 | 1.65 ± 0.16 | 2.56 ± 0.092
24 | SSLHSPTSDEPVPESAG [SRB4] | 2.61 ± 0.065 | 3.16 ± 0.081 | 2.95 ± 0.063 | 3 ± 0.057
25 | LPKLNLPKYQTIQYDPP [SNF5] | 2.53 ± 0.22 | 2.6 ± 0.11 | 2.31 ± 0.16 | 2.11 ± 0.084
26 | IRSSRSRGIVIGSGAMS [RPP1] | 2.63 ± 0.085 | 2.77 ± 0.09 | 2.63 ± 0.091 | 2.46 ± 0.073
27 | VSFRTHNSHLSLNYKFT [SRP21] | 3.01 ± 0.048 | 2.99 ± 0.046 | 3 ± 0.051 | 3.15 ± 0.039
28 | ATEKKSSSPLAMSETLS [PRE8] | 2.33 ± 0.076 | 2.77 ± 0.068 | 2.44 ± 0.1 | 2.39 ± 0.055

Row | Sequence | protein stability index (doa10∆) | protein stability index (pdr5∆) | protein stability index (san1∆) | protein stability index (ubr1∆)
29 | NNEMKSLQRSKSSFVKE [SMC1] | – | 3.25 ± 0.13 | 3.03 ± 0.11 | 3.28 ± 0.073
30 | LERYVKRCMDDLNPLKT [RPO31] | 3.08 ± 0.078 | 3.15 ± 0.058 | 3.27 ± 0.043 | 3.16 ± 0.041
31 | ISKSLTFSQESGLMVIL [RRI2] | 2.23 ± 0.095 | 2.33 ± 0.11 | 2.29 ± 0.094 | 2.27 ± 0.072
32 | SQRPGARILARSERKRT [ITC1] | 3.14 ± 0.18 | 2.79 ± 0.17 | 3.07 ± 0.21 | 2.98 ± 0.2
33 | VIVPQIVLDEVRNKSYP [DIS3] | 2.68 ± 0.066 | 2.33 ± 0.089 | 2.79 ± 0.11 | 1.46 ± 0.04
34 | LNFKDDKKYKGLTTVWL [REC8] | 2.71 ± 0.064 | 2.77 ± 0.14 | 2.64 ± 0.13 | 2.69 ± 0.066
35 | RATPATLTELKDALSNS [SRB2] | 3.11 ± 0.12 | 3.11 ± 0.11 | 3.15 ± 0.12 | 3.42 ± 0.1
36 | MSSTTPKLESVKWQYDP [SNF12] | 3.16 ± 0.065 | 3.25 ± 0.066 | 3.09 ± 0.048 | 3.39 ± 0.062
37 | NQLEDFILELEHKTPEL [YIL149C/MLP2] | 2.74 ± 0.14 | 3.28 ± 0.16 | 3.07 ± 0.14 | 3.35 ± 0.12
38 | VAALRFTAGARAKIVKA [RPL18A] | 1.31 ± 0.089 | 1.4 ± 0.069 | 1.24 ± 0.2 | 1.18 ± 0.1
39 | EGEPVNSPNYFVAKLAA [COR1] | 3.31 ± 0.16 | 3.16 ± 0.14 | 3.37 ± 0.13 | 3.14 ± 0.17
40 | EFTSKIGFTIKEYENHS [SMC1] | 2.59 ± 0.11 | 3.04 ± 0.061 | 2.84 ± 0.12 | 3.01 ± 0.063
41 | NEDSKAFHTAVLRLNAI [NUT1] | 3.26 ± 0.058 | 3.34 ± 0.055 | 3.41 ± 0.047 | 3.27 ± 0.051
42 | LIESLNTIRQNVTSSGD [YML103C/NUP188] | 1.13 ± 0.064 | 1.27 ± 0.096 | 1.17 ± 0.23 | 1.21 ± 0.081
43 | KTGITKKDEDEEADEDM [PRE9] | 3.37 ± 0.13 | 3.7 ± 0.26 | 3.5 ± 0.11 | 2.95 ± 0.23
44 | NLDYLFELIELVTPKSF [NUT1] | 2.85 ± 0.057 | 3 ± 0.082 | 3.09 ± 0.062 | 3.31 ± 0.063
45 | NFGNNGAGGLNPFTSAT [YOR098C/NUP1] | 2.89 ± 0.055 | 3.21 ± 0.09 | 3.15 ± 0.045 | 3.04 ± 0.052
46 | RKAYFTAPSSERRVLLS [RPL26B] | 1.45 ± 0.041 | 1.7 ± 0.051 | 2.49 ± 0.066 | 1.66 ± 0.045
47 | YKHIDASGSINRKVLQA [RPS19A] | 2.06 ± 0.072 | 3.27 ± 0.12 | 2.49 ± 0.073 | 2.53 ± 0.083
48 | LKAQITSLKCLVNRKPI [SNF2] | 2.05 ± 0.045 | 1.77 ± 0.038 | 1.6 ± 0.062 | 1.61 ± 0.032
49 | DDIYDISLLKNRRKQSF [RPN4] | 2.91 ± 0.11 | 3.08 ± 0.12 | 3.13 ± 0.12 | 3.1 ± 0.14
50 | VLPNTALKTSIQHVGMI [FAS1] | 2.95 ± 0.12 | 2.6 ± 0.16 | 1.93 ± 0.14 | 2.4 ± 0.24
51 | NMMDAISFVLGVRSNHL [SMC1] | 2.28 ± 0.063 | 2.58 ± 0.079 | 2.77 ± 0.067 | 2.66 ± 0.064
52 | QLNASISLIPELSVVLS [RRI2] | 2.67 ± 0.064 | 2.96 ± 0.06 | 2.98 ± 0.044 | 2.73 ± 0.039
53 | CSNNKNSIKNVPPILII [SSN2] | 2.39 ± 0.16 | 2.28 ± 0.098 | 2.52 ± 0.17 | 1.5 ± 0.085
54 | LTLRKAKAPSGLDQSRI [FAS1] | 3.05 ± 0.12 | 2.98 ± 0.11 | 3.17 ± 0.12 | 3.13 ± 0.081
55 | EMARTKKACIIFFDEID [RPT1] | 2.14 ± 0.062 | 2.5 ± 0.068 | 2.54 ± 0.083 | 2.56 ± 0.047
